Measurements reported in PMC10235943.

Columns and labels:
endogenous IP3R1 = endogenous IP3R1 (UniProt Q14643); test: sucrose density gradient fractionation
[1] = molecular target: transiently expressed IP3R1 (wild type) (human) (UniProt Q14643); test: sucrose density gradient fractionation

Sequence of transiently expressed IP3R1 (wild type), Q14643-1 1-2758 (receptor) (Q14643 whole entry): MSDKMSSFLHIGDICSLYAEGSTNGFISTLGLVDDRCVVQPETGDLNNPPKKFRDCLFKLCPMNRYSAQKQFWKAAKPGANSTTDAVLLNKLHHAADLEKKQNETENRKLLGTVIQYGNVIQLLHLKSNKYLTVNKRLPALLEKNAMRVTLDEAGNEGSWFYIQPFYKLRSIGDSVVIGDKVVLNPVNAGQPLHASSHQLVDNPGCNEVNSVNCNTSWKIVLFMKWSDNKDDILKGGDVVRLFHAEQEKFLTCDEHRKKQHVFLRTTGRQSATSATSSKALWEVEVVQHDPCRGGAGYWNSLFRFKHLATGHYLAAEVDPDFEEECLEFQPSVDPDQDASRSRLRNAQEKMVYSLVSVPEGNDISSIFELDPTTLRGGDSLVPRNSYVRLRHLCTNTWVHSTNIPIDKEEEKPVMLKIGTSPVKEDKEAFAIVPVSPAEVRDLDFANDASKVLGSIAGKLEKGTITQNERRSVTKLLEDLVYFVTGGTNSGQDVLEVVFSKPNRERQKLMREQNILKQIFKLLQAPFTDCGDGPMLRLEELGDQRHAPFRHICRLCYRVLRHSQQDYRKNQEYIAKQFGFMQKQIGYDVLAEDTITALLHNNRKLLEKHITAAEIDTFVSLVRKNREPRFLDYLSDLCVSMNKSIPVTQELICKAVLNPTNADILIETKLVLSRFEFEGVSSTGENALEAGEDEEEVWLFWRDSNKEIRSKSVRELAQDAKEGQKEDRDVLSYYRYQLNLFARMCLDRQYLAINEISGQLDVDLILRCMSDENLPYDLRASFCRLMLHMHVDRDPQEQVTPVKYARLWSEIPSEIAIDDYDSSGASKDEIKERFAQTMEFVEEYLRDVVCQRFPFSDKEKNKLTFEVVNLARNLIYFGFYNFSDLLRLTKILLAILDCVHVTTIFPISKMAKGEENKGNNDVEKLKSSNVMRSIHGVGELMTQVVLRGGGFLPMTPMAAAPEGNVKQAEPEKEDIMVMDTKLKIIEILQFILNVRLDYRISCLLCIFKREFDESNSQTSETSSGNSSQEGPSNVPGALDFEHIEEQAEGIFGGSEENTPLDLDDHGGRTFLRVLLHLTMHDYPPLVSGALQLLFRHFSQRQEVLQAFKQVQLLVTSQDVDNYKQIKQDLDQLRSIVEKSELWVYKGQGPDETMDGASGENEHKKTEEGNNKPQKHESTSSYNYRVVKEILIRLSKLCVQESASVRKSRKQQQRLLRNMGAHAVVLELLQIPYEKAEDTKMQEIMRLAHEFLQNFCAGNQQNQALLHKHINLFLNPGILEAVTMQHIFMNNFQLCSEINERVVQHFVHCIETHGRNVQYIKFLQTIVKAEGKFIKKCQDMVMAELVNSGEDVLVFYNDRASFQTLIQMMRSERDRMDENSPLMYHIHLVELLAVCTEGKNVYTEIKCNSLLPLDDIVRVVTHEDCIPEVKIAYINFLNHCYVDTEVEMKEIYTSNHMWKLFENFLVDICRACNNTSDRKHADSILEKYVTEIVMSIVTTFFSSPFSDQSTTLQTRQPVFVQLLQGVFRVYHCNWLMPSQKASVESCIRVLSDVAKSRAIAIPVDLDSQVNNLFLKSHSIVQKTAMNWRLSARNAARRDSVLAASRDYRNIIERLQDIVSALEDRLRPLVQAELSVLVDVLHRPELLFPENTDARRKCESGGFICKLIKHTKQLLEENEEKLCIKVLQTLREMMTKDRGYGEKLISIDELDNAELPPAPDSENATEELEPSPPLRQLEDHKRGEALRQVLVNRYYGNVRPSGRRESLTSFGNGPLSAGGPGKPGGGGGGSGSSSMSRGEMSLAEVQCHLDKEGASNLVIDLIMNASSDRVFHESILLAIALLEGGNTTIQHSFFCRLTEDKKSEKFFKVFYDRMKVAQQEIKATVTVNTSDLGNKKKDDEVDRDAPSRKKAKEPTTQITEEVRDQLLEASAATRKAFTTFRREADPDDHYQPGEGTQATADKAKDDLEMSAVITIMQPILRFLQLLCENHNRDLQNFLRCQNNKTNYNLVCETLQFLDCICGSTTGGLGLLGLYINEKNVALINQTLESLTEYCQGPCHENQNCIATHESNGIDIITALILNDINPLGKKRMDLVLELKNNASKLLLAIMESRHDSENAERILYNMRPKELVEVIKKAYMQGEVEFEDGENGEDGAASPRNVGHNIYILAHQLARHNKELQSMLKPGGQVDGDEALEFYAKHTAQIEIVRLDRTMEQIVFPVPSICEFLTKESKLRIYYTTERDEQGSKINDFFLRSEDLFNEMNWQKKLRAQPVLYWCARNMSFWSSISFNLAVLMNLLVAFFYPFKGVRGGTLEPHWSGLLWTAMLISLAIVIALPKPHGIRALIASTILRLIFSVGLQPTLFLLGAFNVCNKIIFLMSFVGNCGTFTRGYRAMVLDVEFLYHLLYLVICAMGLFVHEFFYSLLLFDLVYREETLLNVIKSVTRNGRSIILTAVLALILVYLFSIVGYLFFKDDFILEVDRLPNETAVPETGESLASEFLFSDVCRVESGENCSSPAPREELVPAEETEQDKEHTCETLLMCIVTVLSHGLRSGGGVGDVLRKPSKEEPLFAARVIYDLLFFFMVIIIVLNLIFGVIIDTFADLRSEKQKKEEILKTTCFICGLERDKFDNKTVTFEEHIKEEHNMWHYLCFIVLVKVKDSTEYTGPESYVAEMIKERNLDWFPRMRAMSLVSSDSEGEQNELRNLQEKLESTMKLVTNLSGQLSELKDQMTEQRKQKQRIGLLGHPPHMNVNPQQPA

Row | Substance | stoichiometry N (endogenous IP3R1) | stoichiometry N [1]
1 | endogenous IP3R1, Q14643-1 1-2758 (receptor) | 4 | 
2 | transiently expressed IP3R1 (wild type), Q14643-1 1-2758 (receptor) |  | 4
